PMC9482650, “Quantitative fragmentomics allow affinity mapping of interactomes” (Nature Communications, 2022)

T1: APBA3_1, O96018
T1 sequence (O96018 389-490, limits assumed, looked up): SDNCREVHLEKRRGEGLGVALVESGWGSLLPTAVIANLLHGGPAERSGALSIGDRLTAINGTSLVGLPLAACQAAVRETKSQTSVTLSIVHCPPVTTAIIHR

T2: ARHGAP21, Q5T5U3
T2 sequence (Q5T5U3 45-169, limits assumed, looked up): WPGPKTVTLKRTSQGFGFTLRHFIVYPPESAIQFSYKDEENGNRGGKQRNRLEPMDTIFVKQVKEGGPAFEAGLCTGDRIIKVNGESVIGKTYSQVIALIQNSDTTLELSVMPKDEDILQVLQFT

T3: CARD11, Q9BXL7
T3 sequence (Q9BXL7 662-765, limits assumed, looked up): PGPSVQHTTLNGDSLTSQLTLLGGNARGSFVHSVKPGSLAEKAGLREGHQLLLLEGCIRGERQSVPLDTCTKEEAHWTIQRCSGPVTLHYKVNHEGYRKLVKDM

T4: DVL3, Q92997
T4 sequence (Q92997 244-331, limits assumed, looked up): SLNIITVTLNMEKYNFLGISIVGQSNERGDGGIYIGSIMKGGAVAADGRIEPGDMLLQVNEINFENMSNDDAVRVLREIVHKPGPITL

T5: MPDZ_10, O75970
T5 sequence (O75970 1624-1722, limits assumed, looked up): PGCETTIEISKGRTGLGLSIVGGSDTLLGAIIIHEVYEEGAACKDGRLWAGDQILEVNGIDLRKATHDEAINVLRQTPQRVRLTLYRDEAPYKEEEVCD

T6: MPP7, Q5T2T1
T6 sequence (Q5T2T1 134-230, limits assumed, looked up): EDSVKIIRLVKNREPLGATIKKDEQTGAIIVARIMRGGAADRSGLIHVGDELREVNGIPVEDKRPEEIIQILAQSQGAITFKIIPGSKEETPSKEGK

T7: NHERF3_4, Q5T2W1
T7 sequence (Q5T2W1 373-468, limits assumed, looked up): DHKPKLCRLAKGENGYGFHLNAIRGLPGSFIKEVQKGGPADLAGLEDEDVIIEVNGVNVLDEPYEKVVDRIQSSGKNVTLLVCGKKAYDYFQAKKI

T8: RADIL, Q96JH8
T8 sequence (Q96JH8 971-1071, limits assumed, looked up): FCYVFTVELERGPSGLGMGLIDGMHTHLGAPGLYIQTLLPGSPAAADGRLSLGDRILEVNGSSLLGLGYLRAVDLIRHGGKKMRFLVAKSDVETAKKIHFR

B1: APBA1, Q02410 (peptide)
chain: LTAQEQPVYI
B2: PLEKHH2, Q8IVE3 (peptide)
chain: SRPTKGPTLL
B3: FAT1, Q14517 (peptide)
chain: PLDSQQHTEV
B4: BCR, P11274 (peptide)
chain: RQSILFSTEV

Experiments:
Assay in all cases: holdup assay
Design in all cases: key: below the threshold = too weak to quantify, mostly under pKd 3.1 to 4
Conditions in all cases: plain residues with an end cap or a label only (N-terminal biotin on a linker: ado-ado)
[1] = molecular target: T1, APBA3_1, O96018
[2] = molecular target: T2, ARHGAP21, Q5T5U3
[3] = molecular target: ARHGEF12, Q9NZN5-2
[4] = molecular target: T3, CARD11, Q9BXL7
[5] = molecular target: DLG2_2, Q15700
[6] = molecular target: DLG4_1, P78352
[7] = molecular target: T4, DVL3, Q92997
[8] = molecular target: FRMPD2_3, Q68DX3
[9] = molecular target: FRMPD4, Q14CM0
[10] = molecular target: GORASP1, Q9BQQ3
[11] = molecular target: GRIP2_5, Q9C0E4
[12] = molecular target: Inadl_10, Q8NI35
[13] = molecular target: Inadl_6, Q8NI35
[14] = molecular target: Inadl_9, Q8NI35
[15] = molecular target: LDB3, O75112
[16] = molecular target: LNX1_1, Q8TBB1
[17] = molecular target: LNX1_2, Q8TBB1
[18] = molecular target: MAGI1_1, Q96QZ7
[19] = molecular target: MAGI2_2, Q86UL8
[20] = molecular target: MAGI2_3, Q86UL8
[21] = molecular target: MAGI2_4, Q86UL8
[22] = molecular target: MAGI3_2, Q5TCQ9
[23] = molecular target: T5, MPDZ_10, O75970
[24] = molecular target: T6, MPP7, Q5T2T1
[25] = molecular target: T7, NHERF3_4, Q5T2W1
[26] = molecular target: NOS1, P29475
[27] = molecular target: PDZRN4_1, Q6ZMN7
[28] = molecular target: PTPN3, P26045
[29] = molecular target: T8, RADIL, Q96JH8
[30] = molecular target: SCRIB_3, Q14160
SCRIB_3, Q14160, sequence (Q14160 999-1103): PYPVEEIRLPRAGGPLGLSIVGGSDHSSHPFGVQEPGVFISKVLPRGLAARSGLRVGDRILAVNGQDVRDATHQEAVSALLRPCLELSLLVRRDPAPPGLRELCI

FRMPD2_3, Q68DX3, sequence (Q68DX3 1073-1166): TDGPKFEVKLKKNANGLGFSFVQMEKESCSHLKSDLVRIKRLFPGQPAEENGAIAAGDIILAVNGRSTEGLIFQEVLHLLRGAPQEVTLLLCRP
MAGI1_1, Q96QZ7, sequence (Q96QZ7 1-106): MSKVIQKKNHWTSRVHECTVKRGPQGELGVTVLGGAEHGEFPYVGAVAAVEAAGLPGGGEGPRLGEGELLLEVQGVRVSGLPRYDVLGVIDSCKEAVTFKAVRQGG
DLG4_1, P78352, sequence (P78352 62-152): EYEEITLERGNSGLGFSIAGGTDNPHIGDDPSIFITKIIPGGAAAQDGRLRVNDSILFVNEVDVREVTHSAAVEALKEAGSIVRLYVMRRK
Inadl_9, Q8NI35, sequence (Q8NI35 1530-1615): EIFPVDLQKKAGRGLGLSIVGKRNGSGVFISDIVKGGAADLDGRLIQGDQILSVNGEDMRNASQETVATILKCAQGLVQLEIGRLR
FRMPD4, Q14CM0, sequence (Q14CM0 67-160): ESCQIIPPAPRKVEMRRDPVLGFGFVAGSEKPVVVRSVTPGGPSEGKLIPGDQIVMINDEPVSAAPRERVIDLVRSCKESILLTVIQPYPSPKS
PDZRN4_1, Q6ZMN7, sequence (Q6ZMN7 213-318): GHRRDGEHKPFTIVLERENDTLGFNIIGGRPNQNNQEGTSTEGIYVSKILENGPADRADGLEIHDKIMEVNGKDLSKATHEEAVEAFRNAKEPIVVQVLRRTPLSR
LNX1_1, Q8TBB1, sequence (Q8TBB1 261-371): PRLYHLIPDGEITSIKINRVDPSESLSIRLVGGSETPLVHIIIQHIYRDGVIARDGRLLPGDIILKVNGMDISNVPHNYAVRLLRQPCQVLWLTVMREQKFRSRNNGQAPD
GORASP1, Q9BQQ3, sequence (Q9BQQ3 1-208): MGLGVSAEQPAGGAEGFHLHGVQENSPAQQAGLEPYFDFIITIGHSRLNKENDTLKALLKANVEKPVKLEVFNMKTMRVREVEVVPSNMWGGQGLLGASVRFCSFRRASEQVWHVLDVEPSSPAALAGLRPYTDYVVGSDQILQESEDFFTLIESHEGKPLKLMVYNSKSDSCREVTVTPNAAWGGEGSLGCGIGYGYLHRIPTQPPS
Inadl_10, Q8NI35, sequence (Q8NI35 1673-1763): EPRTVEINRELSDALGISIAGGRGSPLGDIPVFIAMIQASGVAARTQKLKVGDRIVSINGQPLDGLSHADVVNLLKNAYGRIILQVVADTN
DLG2_2, Q15700, sequence (Q15700 189-283): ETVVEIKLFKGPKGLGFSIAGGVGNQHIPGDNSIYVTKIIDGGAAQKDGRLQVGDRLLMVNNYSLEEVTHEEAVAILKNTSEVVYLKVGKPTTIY
MAGI2_2, Q86UL8, sequence (Q86UL8 410-522): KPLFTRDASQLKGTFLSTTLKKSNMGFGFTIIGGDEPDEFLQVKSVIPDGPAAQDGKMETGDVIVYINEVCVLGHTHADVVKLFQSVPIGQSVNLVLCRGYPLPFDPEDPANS
Inadl_6, Q8NI35, sequence (Q8NI35 1058-1167): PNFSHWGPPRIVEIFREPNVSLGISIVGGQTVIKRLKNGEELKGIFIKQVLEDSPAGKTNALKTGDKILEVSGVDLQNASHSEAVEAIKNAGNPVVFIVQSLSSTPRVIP
ARHGEF12, Q9NZN5-2, sequence (Q9NZN5 other isoform, or with tags, fused parts or gaps): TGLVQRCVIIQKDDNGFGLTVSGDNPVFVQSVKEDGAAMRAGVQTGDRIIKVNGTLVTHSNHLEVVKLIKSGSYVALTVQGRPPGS
GRIP2_5, Q9C0E4, sequence (Q9C0E4 544-642): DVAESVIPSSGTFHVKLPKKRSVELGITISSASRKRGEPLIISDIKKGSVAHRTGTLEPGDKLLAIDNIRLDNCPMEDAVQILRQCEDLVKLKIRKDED
LDB3, O75112, sequence (O75112 1-94): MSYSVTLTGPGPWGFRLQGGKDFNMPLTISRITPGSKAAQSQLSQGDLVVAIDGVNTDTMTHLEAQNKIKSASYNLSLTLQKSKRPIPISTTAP
LNX1_2, Q8TBB1, sequence (Q8TBB1 371-470): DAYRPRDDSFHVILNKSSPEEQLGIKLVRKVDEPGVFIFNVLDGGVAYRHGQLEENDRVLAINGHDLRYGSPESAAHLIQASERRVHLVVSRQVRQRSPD
MAGI3_2, Q5TCQ9, sequence (Q5TCQ9 398-503): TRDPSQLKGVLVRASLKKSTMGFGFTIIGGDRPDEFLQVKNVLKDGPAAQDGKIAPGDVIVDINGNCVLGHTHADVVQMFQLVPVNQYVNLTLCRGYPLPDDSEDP
MAGI2_4, Q86UL8, sequence (Q86UL8 772-865): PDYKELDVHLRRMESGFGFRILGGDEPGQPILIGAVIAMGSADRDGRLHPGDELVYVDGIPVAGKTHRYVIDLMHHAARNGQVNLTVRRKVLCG
MAGI2_3, Q86UL8, sequence (Q86UL8 600-682): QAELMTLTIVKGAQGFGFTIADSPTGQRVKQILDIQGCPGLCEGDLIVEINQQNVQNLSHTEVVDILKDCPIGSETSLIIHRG
NOS1, P29475, sequence (P29475 9-101): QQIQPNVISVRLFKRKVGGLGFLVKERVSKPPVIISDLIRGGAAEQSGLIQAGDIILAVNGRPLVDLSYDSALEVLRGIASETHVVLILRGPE
PTPN3, P26045, sequence (P26045 505-587): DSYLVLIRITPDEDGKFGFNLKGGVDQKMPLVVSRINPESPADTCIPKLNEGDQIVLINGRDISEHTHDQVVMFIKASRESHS

Binder | pKd [1] | pKd [2] | pKd [3] | pKd [4] | pKd [5] | pKd [6] | pKd [7] | pKd [8] | pKd [9] | pKd [10] | pKd [11] | pKd [12] | pKd [13] | pKd [14] | pKd [15] | pKd [16] | pKd [17] | pKd [18] | pKd [19] | pKd [20] | other results
B1 | below the threshold | 3.57 | below the threshold | below the threshold | below the threshold | below the threshold | 3.87 | below the threshold | below the threshold | 3.87 | below the threshold | below the threshold | below the threshold | 4.6 | below the threshold | below the threshold | below the threshold | below the threshold | 3.52 | below the threshold | pKd [21]: below the threshold; pKd [22]: below the threshold; pKd [23]: below the threshold; pKd [24]: below the threshold; pKd [25]: below the threshold; pKd [26]: 4.07; pKd [27]: below the threshold; pKd [28]: 3.61; pKd [29]: 4.53; pKd [30]: below the threshold
B2 | below the threshold | 4.02 | 4.9 | below the threshold | below the threshold | 3.91 | below the threshold | below the threshold | 3.88 | 3.78 | below the threshold | below the threshold | below the threshold | 3.5 | below the threshold | below the threshold | below the threshold | below the threshold | 4.2 | below the threshold | pKd [21]: below the threshold; pKd [22]: 4.4; pKd [23]: below the threshold; pKd [24]: below the threshold; pKd [25]: 3.65; pKd [26]: 4.35; pKd [27]: below the threshold; pKd [28]: 4.02; pKd [29]: 3.94; pKd [30]: 4.41
B3 | below the threshold | 3.85 | 4.42 | below the threshold | 4.62 | 4.41 | below the threshold | below the threshold | below the threshold | below the threshold | below the threshold | below the threshold | below the threshold | 3.69 | below the threshold | below the threshold | below the threshold | below the threshold | below the threshold | below the threshold | pKd [21]: below the threshold; pKd [22]: 3.71; pKd [23]: below the threshold; pKd [24]: below the threshold; pKd [25]: below the threshold; pKd [26]: below the threshold; pKd [27]: 3.81; pKd [28]: 4.5; pKd [29]: 3.89; pKd [30]: 4.2
B4 | below the threshold | below the threshold | 5.09 | below the threshold | 4.63 | 4.67 | below the threshold | below the threshold | below the threshold | below the threshold | below the threshold | 4.32 | 3.93 | 4.09 | below the threshold | 4.85 | 3.74 | below the threshold | 3.7 | below the threshold | pKd [21]: 4.88; pKd [22]: 4.13; pKd [23]: 3.62; pKd [24]: below the threshold; pKd [25]: 4.37; pKd [26]: below the threshold; pKd [27]: 3.78; pKd [28]: 4.59; pKd [29]: 4.48; pKd [30]: 4.58
